Legend:
Experiment in all cases: pull-down
ZCCHC3 MF R168S (human) = tested on: ZCCHC3 MF R168S (human)
[1] = molecular target: T1, ZCCHC3 MF R168/247S R168S;R247S (human) (UniProt Q9NUD5)
T1 sequence: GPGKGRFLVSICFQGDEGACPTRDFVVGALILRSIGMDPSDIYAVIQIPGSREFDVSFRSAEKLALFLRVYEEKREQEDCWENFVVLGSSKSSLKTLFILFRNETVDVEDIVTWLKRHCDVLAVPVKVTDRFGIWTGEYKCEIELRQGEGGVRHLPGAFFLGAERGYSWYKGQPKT

ZCCHC3 MF R247S (human) = tested on: ZCCHC3 MF R247S (human)

HIV-1 LTR (R-U5) RNA
binding signal (ZCCHC3 MF R168S (human)): 50 % of WT MF | binding signal [1]: 15 % of WT MF | binding signal (ZCCHC3 MF R247S (human)): 50 % of WT MF

Source: doi:10.1101/2023.06.14.544911
